Experimental data taken from US20060026702A1, “Phosphoinositide 3-kinase mediated inhibition of GPCRs” (DUKE UNIVERSITY, priority 2002, published 2006).
Each block holds one molecule with its values, some of them ahead of it.

How the values were obtained:
βARK1 = target: T1, βARK1 (Bos taurus, UniProt P21146); assay: Co-immunoprecipitation and GST pull-down with purified βARK1; type: binding; settings: immunoprecipitated FLAG-HEAT or PI3KΔHEAT-HA
T1 construct: gift from Dr. Robert Lefkowitz
T1 sequence (P21146 1-689): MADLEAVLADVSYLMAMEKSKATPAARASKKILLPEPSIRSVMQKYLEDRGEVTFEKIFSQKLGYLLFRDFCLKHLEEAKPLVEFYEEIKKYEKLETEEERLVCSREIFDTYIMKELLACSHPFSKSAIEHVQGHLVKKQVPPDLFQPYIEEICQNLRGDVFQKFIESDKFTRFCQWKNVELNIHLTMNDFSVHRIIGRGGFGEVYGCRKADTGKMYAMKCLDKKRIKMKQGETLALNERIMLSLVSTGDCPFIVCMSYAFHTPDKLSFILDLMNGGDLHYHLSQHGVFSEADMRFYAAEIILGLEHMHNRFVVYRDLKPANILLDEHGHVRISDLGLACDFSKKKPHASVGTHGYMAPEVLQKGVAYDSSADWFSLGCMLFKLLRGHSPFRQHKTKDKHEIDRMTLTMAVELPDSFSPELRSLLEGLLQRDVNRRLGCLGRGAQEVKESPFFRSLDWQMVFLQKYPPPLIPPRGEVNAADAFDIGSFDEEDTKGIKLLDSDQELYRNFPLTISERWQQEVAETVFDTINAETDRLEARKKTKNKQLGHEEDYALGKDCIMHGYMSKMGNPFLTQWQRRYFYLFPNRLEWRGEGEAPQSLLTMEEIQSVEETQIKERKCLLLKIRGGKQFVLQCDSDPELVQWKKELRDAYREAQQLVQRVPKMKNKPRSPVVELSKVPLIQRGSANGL
Experimental: GST Fusion Protein Expression and Pull-down Experiments—Plasmid DNAs were transformed in Escherichia coli BL21 cells. Overnight cultures were grown in LB medium supplemented with ampicillin (100 μg/ml), diluted to an A600 of 0.2 in the same medium and grown for another 1 hr at 37° C. Cultured cells were then induced with 0.1 mM isopropyl-1-thio-β-D-galactopyranoside for 2 hr. Cell were then pelleted, washed once with 1× phosphate-buffered saline and resuspended in 1× phosphate-buffered saline containing 1 mM phenylmethylsulfonyl fluoride, 2 mg/ml lysozyme and incubated for 15 min on ice. Cells were lysed by adding Triton X-100 1%. Solublized cells were incubated with DNase (300 units) for 15 min on ice and centrifuged at 13,000 rpm for 10 min.
Glutathione-Sepharose beads were added to the supernatant and gently agitated at 4° C. for 2 hr. Beads were washed three times with ice cold 1×PBS containing 1% Triton X-100 followed by three washes with cold PBS without detergent. Protein concentration was determined using a DC protein assay kit (Bio Rad), and the integrity of the fusion protein was analyzed by SDS-polyacrylamide gel electrophoresis and Coomassie staining.
The beads were spun and washed three times with binding buffer followed by three washes with binding buffer without detergent. The beads were resuspended in SDS gel loading buffer and resolved by gel electrophoresis, immunblotting and detection was carried out described later.
FLAG-HEAT and PI3KΔHEAT proteins were immunoprecipitated from cell extracts using monoclonal FLAG and HA antibodies respectively, fractionated by SDS-PAGE and analyzed by immunoblotting with βARK1 monoclonal antibody. […] Levels of expression of HEAT and PI3KΔHEAT proteins were similar (FIG. 8B, lower panel).
To investigate whether there was a direct physical interaction between the HEAT domain of PI3K and βARK1, GST-HEAT fusion protein containing 535-732 amino acid residues of PI3Kγ was produced, which including the entire HEAT domain and flanking upstream 10 amino acids and downstream 7 amino acids. […]

βARK1/PI3K interaction = target: T2, βARK1/PI3K interaction (Bos taurus, UniProt P21146); assay: βARK1 associated PI3K activity in HEK 293 cells co-transfected with HEAT or PI3KΔHEAT; type: cell-based; settings: 4 μg cDNA co-transfected with βARK1
T2 construct: recognizes both full length βARK1 and the βARKct; expressed in transfected cells; host or cells: HEK 293
T2 sequence (P21146 1-689): T1 sequence (P21146 1-689)
Experimental: The present inventors determined that overexpression of the 197 amino acid HEAT domain of PI3K competed for endogenous PI3K binding to βARK1 in living cells. HEK 293 cells were co-transfected with plasmids containing the βARK1 cDNA (2 μg) and increasing concentrations of the HEAT domain cDNA (ranging from 0 to 6 μg). […] The maximal reduction of βARK1 associated PI3K activity occurred when cells were co-transfected with 4 μg of HEAT cDNA (FIG. 9B). Summary results of n=5 experiments. *, p<0.0005. The data was normalized to βARK1 associated PI3K activity in cells transfected with βARK1 only. Furthermore, FLAG tagged HEAT protein co-immunoprecipitated with βARK1 monoclonal antibodies in the co-transfected HEK 293 cells.
The absence of the HEAT domain in an otherwise intact PI3K molecule affected the association of βARK1 with endogenous PI3K in cells. HEK 293 cells were co-transfected with plasmids containing cDNAs for βARK1 (2 μg), βARK1 plus HEAT (4 μg), and βARK1 plus PI3KΔHEAT (4 μg). Cell lysates were immunoprecipitated with a βARK1 monoclonal antibody and assayed for the associated PI3K activity. Expression of PI3KΔHEAT had no effect on the endogenous βARK1/PI3K interaction, whereas overexpression of HEAT abolished this interaction (FIGS. 9C and 9D). […] The data was normalized to βARK1 associated PI3K activity in cells transfected with βARK1 only.
Cytosolic and membrane fractions were prepared and analyzed for βARK1 associated PI3K activity. […] Membrane fractions were prepared from the HEK293 cells co-transfected with the βARK1 (2 μg), βARK1 and HEAT domain (4 μg) containing plasmids.

[1] = Catalytic (lipid kinase) activity of PI3K mutant; type: biochemical; settings: compared with wild type PI3K
Description: PI3KΔHEAT was constructed using 2 PCR reactions that selectively amplified regions of PI3K upstream and downstream from the HEAT domain (FIG. 8a). The region of PI3K upstream from HEAT was amplified using the forward primer (5′-[…]-3′) containing a BamHI site and Kozak consensus sequence, and the reverse primer (5′-[…]-3′) containing a SacI site. The region of PI3K downstream of the HEAT domain was amplified using the forward primer (5′-[…]-3′) containing a SacI site and the reverse primer (5′-[…]-3′) containing a BamHI site and a consensus stop codon. The upstream and downstream regions of PI3K were separately subcloned in the zero-blunt TOPO vector and sequence was verified by dideoxy sequencing. Following digestion with the restriction enzymes BamHI/SacI, a three fragment ligation was carried with the mammalian expression vector pRK5, to generate the plasmid containing the PI3KΔHEAT cDNA (FIG. 8a). […] The plasmids containing cDNAs encoding βARK1, FLAG-β2AR, HA-β2AR and p110γ have been described previously.

PI3K [2] = target: T3, PI3K (Homo sapiens, UniProt P48736); assay: βARK1 associated PI3K activity (lipid kinase assay) in transfected NIH-3T3 cells; type: cell-based, Mouse; settings: co-transfected βARKct cDNA; isoproterenol 2 min
T3 construct: expressed in transfected cells; host or cells: NIH-3T3
Experimental: (§1) Cell Culture—Mouse NIH-3T3 and HEK293 cells were maintained in either Iscoves modified Dulbecco's medium or minimal essential medium (MEM) supplemented with 10% fetal bovine serum and 1:100 penicillin-streptomycin (10,000 U/ml) at 37° C. Cells were seeded at a density of ˜1-3×10^5 cells/35 mm^2 dish and at 70-80% confluence were transiently transfected using the transfection reagent FUGENE6 (ROCHE) or calcium phosphate precipitation. Cells were harvested 24 hours after transfection, re-plated in triplicate, allowed to grow overnight and serum starved for 2-4 hours before agonist stimulation.
(§2) Cytosolic and Membrane Fractionation—Cell monolayers were scraped in 1 ml of buffer containing 25 mM Tris-HCl (pH 7.5), 5 mM EDTA, 5 mM EGTA, 1 mM phenylmethylsulfonyl fluoride, 2 μg/ml each of leupeptin and aprotinin and disrupted further by using Dounce homogenizer. Intact cells and nuclei were removed by-centrifugation at 1,000×g for 5 min. The collected supernatant was further subject to a centrifugation at 38,000×g for 25 min. The pellet was resuspended in lysis buffer (1% Nonidet P-40, 10% glycerol, 137 mM NaCl, 20 mM Tris-Cl (ph 7.4), 1 mM phenylmethylsulfonyl fluoride, 20 mM NaF, 1 mM sodium pyrophosphate, 1 mM sodium orthovanadate and 2 μg/ml each of aprotinin and leupeptin) and used as membrane fraction and the supernatant was diluted in lysis buffer and used as the cytosolic fraction.
(§3) Lipid Kinase Assays—Cells were lysed in lysis buffer and 2 mg cytosolic extract was used for immunoprecipitation with either the C5/1 monoclonal antibody directed against βARK1, the anti-FLAG M2 monoclonal antibody (Sigma) or antibodies to p110γ, or p110β (Santa Cruz Biotechnology) and protein G-agarose. Sedimented beads were then washed once with 1 ml of lysis buffer, thrice with 1 ml of phosphate-buffered saline (1× phosphate-buffered saline, 1% NP-40 and 100 μM sodium orthovanadate), thrice with 1 ml of Tris/LiCl (100 mM Tris-HCl (pH 7.4), 5 mM LiCl and 100 μM sodium orthovanadate) and twice with TNE (10 mM Tris Cl (pH 7.4), 150 mM NaCl, 5 mM EDTA and 100 μM sodium orthovanadate). Samples were then resuspended in 50 ml of TNE and 10 μl of 100 mM MgCl2 was added to each sample. The substrate, phosphatidylinositol (PI, Avanti), was prepared by drying 50 μl of the 10 mg/ml stock (PI in chloroform) in an eppendorf tube with a stream of air and adding 250 μl of TE (10 mM Tris Cl (pH 7.4) and 1 mM EDTA). The PI was then suspended by sonication in an ice bath for 3 minutes. 10 p, of the PI solution and 11 μl of ATP solution (440 μM cold ATP and 1 μCi/μl of [γ-32P]ATP) were added to each sample. […] Autoradiography of dried plates was used to detect signals, and PIP was quantified by phosphorimaging. […] Values are expressed as fold increase/decrease relative to wild-type/control.

PI3K [3] = target: T4, PI3K (Homo sapiens, UniProt P48736, DEL30-30/Q459R); assay: as above; type: cell-based, Mouse; settings: co-transfected βARKct cDNA
T4 construct: expressed in transfected cells; host or cells: NIH-3T3
T4 sequence (P48736 with tags, fused parts or gaps DEL30-30/Q459R): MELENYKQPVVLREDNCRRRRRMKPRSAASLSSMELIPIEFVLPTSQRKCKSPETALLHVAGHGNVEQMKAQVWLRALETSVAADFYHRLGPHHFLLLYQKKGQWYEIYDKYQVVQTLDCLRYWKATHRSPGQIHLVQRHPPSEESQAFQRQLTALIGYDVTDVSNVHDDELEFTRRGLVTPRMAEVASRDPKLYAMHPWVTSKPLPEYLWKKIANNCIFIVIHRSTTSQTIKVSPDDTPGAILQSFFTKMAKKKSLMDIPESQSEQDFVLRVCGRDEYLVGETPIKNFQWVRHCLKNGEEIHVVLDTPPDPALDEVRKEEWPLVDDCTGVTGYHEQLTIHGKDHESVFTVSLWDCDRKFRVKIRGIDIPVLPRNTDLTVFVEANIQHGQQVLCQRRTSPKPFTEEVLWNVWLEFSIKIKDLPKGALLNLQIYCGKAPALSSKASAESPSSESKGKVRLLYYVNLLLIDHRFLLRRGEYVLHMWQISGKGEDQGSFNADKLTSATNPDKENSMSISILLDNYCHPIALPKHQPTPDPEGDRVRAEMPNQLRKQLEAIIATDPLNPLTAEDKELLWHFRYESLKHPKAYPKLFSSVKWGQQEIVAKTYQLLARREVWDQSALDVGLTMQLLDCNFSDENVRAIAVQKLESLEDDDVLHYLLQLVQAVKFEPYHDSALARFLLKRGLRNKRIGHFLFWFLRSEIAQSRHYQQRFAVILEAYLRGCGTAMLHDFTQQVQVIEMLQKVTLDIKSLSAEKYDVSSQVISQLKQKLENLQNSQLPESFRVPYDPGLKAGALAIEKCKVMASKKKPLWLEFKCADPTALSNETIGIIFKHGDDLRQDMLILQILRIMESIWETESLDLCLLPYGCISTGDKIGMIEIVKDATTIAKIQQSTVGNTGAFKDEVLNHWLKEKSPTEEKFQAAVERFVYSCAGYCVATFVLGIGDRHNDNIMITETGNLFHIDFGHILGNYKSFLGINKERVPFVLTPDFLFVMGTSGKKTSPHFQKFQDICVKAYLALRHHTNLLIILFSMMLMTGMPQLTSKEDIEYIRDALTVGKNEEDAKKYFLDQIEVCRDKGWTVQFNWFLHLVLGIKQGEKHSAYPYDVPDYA
Experimental: as §1, §2, §3

T3 sequence (P48736 with tags, fused parts or gaps DEL30-30/Q459R): as above

- association with purified βARK1 (immune complexes from HEK 293 extracts) (βARK1): not
B1: PI3KΔHEAT: HA tagged PI3K mutant with a deletion of the HEAT domain (protein)
chain: MELENYKQPVVLREDNCRRRRRMKPRSAASLSSMELIPIEFVLPTSQRKCKSPETALLHVAGHGNVEQMKAQVWLRALETSVAADFYHRLGPHHFLLLYQKKGQWYEIYDKYQVVQTLDCLRYWKATHRSPGQIHLVQRHPPSEESQAFQRQLTALIGYDVTDVSNVHDDELEFTRRGLVTPRMAEVASRDPKLYAMHPWVTSKPLPEYLWKKIANNCIFIVIHRSTTSQTIKVSPDDTPGAILQSFFTKMAKKKSLMDIPESQSEQDFVLRVCGRDEYLVGETPIKNFQWVRHCLKNGEEIHVVLDTPPDPALDEVRKEEWPLVDDCTGVTGYHEQLTIHGKDHESVFTVSLWDCDRKFRVKIRGIDIPVLPRNTDLTVFVEANIQHGQQVLCQRRTSPKPFTEEVLWNVWLEFSIKIKDLPKGALLNLQIYCGKAPALSSKASAESPSSESKGKVRLLYYVNLLLIDHRFLLRRGEYVLHMWQISGKGEDQGSFNADKLTSATNPDKENSMSISILLDNYCHPIALPKHQPTPDPEGDRGTAMLHDFTQQVQVIEMLQKVTLDIKSLSAEKYDVSSQVISQLKQKLENLQNSQLPESFRVPYDPGLKAGALAIEKCKVMASKKKPLWLEFKCADPTALSNETIGIIFKHGDDLRQDMLILQILRIMESIWETESLDLCLLPYGCISTGDKIGMIEIVKDATTIAKIQQSTVGNTGAFKDEVLNHWLKEKSPTEEKFQAAVERFVYSCAGYCVATFVLGIGDRHNDNIMITETGNLFHIDFGHILGNYKSFLGINKERVPFVLTPDFLFVMGTSGKKTSPHFQKFQDICVKAYLALRHHTNLLIILFSMMLMTGMPQLTSKEDIEYIRDALTVGKNEEDAKKYFLDQIEVCRDKGWTVQFNWFLHLVLGIKQGEKHSAYPYDVPDYA
- endogenous βARK1/PI3K interaction (βARK1/PI3K interaction): no effect
- catalytic activity [1]: indistinguishable from wild type PI3K

B2: βARKct: carboxyl terminus of βARK1 that attenuates the Gβγ dependent signaling (protein)
chain: GIKLLDSDQELYRNFPLTISERWQQEVAETVFDTINAETDRLEARKKTKNKQLGHEEDYALGKDCIMHGYMSKMGNPFLTQWQRRYFYLFPNRLEWRGEGEAPQSLLTMEEIQSVEETQIKERKCLLLKIRGGKQFVLQCDSDPELVQWKKELRDAYREAQQLVQRVPKMKNKPRSPVVELSKVPLIQRGSANGL
- agonist-dependent translocation of βARK1 associated PI3K activity to the membrane (PI3K [2]): abolished
- βARK1 associated PI3K activity in the cytosolic fraction (PI3K [3]): loss
